# Patent publication US11649460B2, “DNA aptamers, method for inhibiting human galectin-1 and method of treating a mammal in need thereof” (priority 2020, dated 2023)
# B1: CTGACACAGCAGGTTGGTGCCAACTAACACCATAAGAATACCCCGCTCCAAATAAGCCCACACGTAAACCCGAGTCGAGCAATCTCGAAAT (nucleic acid)
# DNA: CTGACACAGCAGGTTGGTGCCAACTAACACCATAAGAATACCCCGCTCCAAATAAGCCCACACGTAAACCCGAGTCGAGCAATCTCGAAAT
# modifications: chemistry not given here
# notes: DNA aptamer that recognizes human galectin-1
# How the values were obtained:
# [1] = tested on: MCF-7 human breast adenocarcinoma cell line; assay: SRB cell proliferation (cytotoxicity) assay, MCF-7
# From the text: (§1) The XLSTAT software was used to determine the IC50, TGI and LC50 values using the four-parameter logistic curve equation.
# [2] = tested on: SK-BR-3 human breast adenocarcinoma; assay: SRB cell proliferation (cytotoxicity) assay, SK-BR-3
# From the text: as §1
# [3] = tested on: OVCAR-3 human ovarian adenocarcinoma cell line; assay: SRB cell proliferation (cytotoxicity) assay, OVCAR-3
# From the text: as §1
# [4] = tested on: HT-29 human colorectal adenocarcinoma; assay: SRB cell proliferation (cytotoxicity) assay, HT-29
# From the text: as §1
molecule,measurement,setting,value
B1,Relative viability (%) of test items,[1]; 0.781 µM,110.4%
same,Relative viability (%) of test items,[1]; 1.562 µM,96.7%
same,Relative viability (%) of test items,[1]; 3.125 µM,95.8%
same,Relative viability (%) of test items,[1]; 6.25 µM,86.2%
same,Relative viability (%) of test items,[1]; 12.5 µM,72.7%
same,Relative viability (%) of test items,[1]; 25 µM,60.9%
same,Relative viability (%) of test items,[1]; 50 µM,43.4%
same,Relative viability (%) of test items,[1]; 100 µM,0.7%
same,TGI: Concentration for total inhibition of cell growth,[1]; MCF-7,>100 µM
same,IC50,"[1]; read-out: IC50: Concentration to inhibit 50% of cell growth, MCF-7",35.1 µM
same,CC50,"[1]; read-out: LC50: Concentration for 50% cell death, MCF-7",> 100 µM
same,Relative cell viability (%) of test items,[2]; 0.781 µM,101.9%
same,Relative cell viability (%) of test items,[2]; 1.562 µM,103.4%
same,Relative cell viability (%) of test items,[2]; 3.125 µM,98.6%
same,Relative cell viability (%) of test items,[2]; 6.25 µM,106.2%
same,Relative cell viability (%) of test items,[2]; 12.5 µM,96.1%
same,Relative cell viability (%) of test items,[2]; 25 µM,47.0%
same,Relative cell viability (%) of test items,[2]; 50 µM,−34.6%
same,Relative cell viability (%) of test items,[2]; 100 µM,−86.3%
same,TGI: Concentration for total inhibition of cell growth,[2]; SK-BR-3,37.515 µM
same,IC50,"[2]; read-out: IC50: Concentration to inhibit 50% of cell growth, SK-BR-3",25 µM
same,CC50,"[2]; read-out: LC50: Concentration for 50% cell death, SK-BR-3",56.9 µM
same,Relative viability (%) of test items,[3]; 0.781 µM,99.6%
same,Relative viability (%) of test items,[3]; 1.562 µM,93.9%
same,Relative viability (%) of test items,[3]; 3.125 µM,89.4%
same,Relative viability (%) of test items,[3]; 6.25 µM,67.2%
same,Relative viability (%) of test items,[3]; 25 µM,37.7%
same,Relative viability (%) of test items,[3]; 50 µM,−14.6%
same,Relative viability (%) of test items,[3]; 100 µM,−68.1%
same,TGI: Concentration for total inhibition of cell growth,[3]; OVCAR-3,41.931 µM
same,IC50,"[3]; read-out: IC50: Concentration to inhibit 50% of cell growth, OVCAR-3",14.2 µM
same,CC50,"[3]; read-out: LC50: Concentration for 50% cell death, OVCAR-3",82.4 µM
same,Relative cell viability (%) of test items,[4]; 0.781 µM,93.5%
same,Relative cell viability (%) of test items,[4]; 1.562 µM,90.7%
same,Relative cell viability (%) of test items,[4]; 3.125 µM,88.6%
same,Relative cell viability (%) of test items,[4]; 6.25 µM,74.6%
same,Relative cell viability (%) of test items,[4]; 12.5 µM,47.4%
same,Relative cell viability (%) of test items,[4]; 25 µM,5.8%
same,Relative cell viability (%) of test items,[4]; 50 µM,−84.0%
same,Relative cell viability (%) of test items,[4]; 100 µM,−61.1%
same,TGI: Concentration for total inhibition of cell growth,[4]; HT-29,22.932 µM
same,IC50,"[4]; read-out: IC50: Concentration to inhibit 50% of cell growth, HT-29",13.5 µM
same,CC50,"[4]; read-out: LC50: Concentration for 50% cell death, HT-29",40.9 µM
